# Source: patent publication US20250250334A1 (MEDICOVESTOR, published 2025)
# Assays:
# [1] = biological target: T1, human FRalpha expressed on cells (transfected HEK293 cells; SKOV3 human ovarian cancer cells) (human, UniProt P15328 25-234); experiment: flow cytometry, HEK293 cells transfected to express FRalpha
# T1 construct: whole, on cells; also called human folate receptor alpha
# Method: (§1) The affinity of each antibody was then assessed by flow cytometry. Briefly, HEK293 cells transfected to express FRalpha were washed with fluorescence-activated cell sorting (FACS) buffer, to which the IgGs were added at varying concentrations and incubated at 4 degrees Celsius for 60 minutes. The cells were then centrifuged and washed twice in FACS buffer. A phycoerythrin-labelled anti-human IgG, Fcgamma antibody (109-115-098; Jackson ImmunoResearch, Pennsylvania, United States) was then added to the cells at a 1:200 dilution and incubated at 4 degrees Celsius for 30 minutes. The cells were then washed, resuspended in FACS buffer, and counted by flow cytometry. Results are depicted in FIG. 4.
# [2] = biological target: T2, fusion protein containing the extracellular domain of cynomolgus FRalpha and a polyhistidine tag (cynomolgus, UniProt A0A2K5U044 25-233); experiment: ELISA, coated cynomolgus FRalpha ECD-His
# T2 construct: extracellular domain; Coated on ELISA plates; also called cynomolgus FRalpha extracellular domain; not shown: polyhistidine tag
# T2 sequence (A0A2K5U044 entry or part of it): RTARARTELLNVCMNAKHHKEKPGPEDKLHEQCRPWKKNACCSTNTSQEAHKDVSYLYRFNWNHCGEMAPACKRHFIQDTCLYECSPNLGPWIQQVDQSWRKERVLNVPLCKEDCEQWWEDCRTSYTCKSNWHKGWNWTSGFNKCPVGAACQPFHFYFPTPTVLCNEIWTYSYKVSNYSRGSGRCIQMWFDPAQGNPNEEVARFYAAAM
# Method: (§2) The affinity of each IgG1 for FRalpha was confirmed by ELISA. Briefly, a fusion protein containing the extracellular domain of human FRalpha and a polyhistidine tag was used to coat ELISA plates, which were washed three times with phosphate-buffered saline (PBS) containing 0.1 percent polysorbate 20 (PBST), then blocked with PBS containing 5 percent powdered milk (PBSM), and then washed three more times with PBST. Wells were then incubated with antibodies at varying concentrations for 60 minutes at room temperature in 1 percent PBSM. Wells were then washed three times with PBST, after which the secondary, horseradish-peroxidase-conjugated antibody anti-human-IgG-Fc-HRP (ab97225, Abcam, United Kingdom) was added at a 1:8000 dilution in 1 percent PBSM for 50 minutes at room temperature. The wells were then washed six times with PBST, after which 3,3′, 5,5″-tetramethylbenzidine (TMB) was added. The reaction was stopped with 2 molar sulfuric acid, and the TMB diamine product was quantified at 450 nanometers in a plate reader. Results are depicted in FIG. 2.
# The ELISA of the preceding paragraph was repeated with a fusion protein containing the extracellular domain of cynomolgus FRalpha and a polyhistidine tag. Results are depicted in FIG. 3.
# [3] = biological target: T1, human FRalpha expressed on cells …; experiment: flow cytometry, SKOV3 human ovarian cancer cells that express FRalpha
# Method: as §1
# The flow cytometry experiment of the preceding paragraph was repeated with a human ovarian cancer cell line that expresses FRalpha, SKOV3. Results are depicted in FIGS. 5A and 5B. […] The antibody according to SEQ ID NO: 3-12 was then designated the lead antibody for further development.
# [4] = biological target: T3, fusion protein containing the extracellular domain of human FRalpha and a polyhistidine tag (human, UniProt P15328 25-233); experiment: ELISA, coated human FRalpha ECD-His
# T3 construct: extracellular domain; Coated on ELISA plates; also called human FRalpha extracellular domain; not shown: polyhistidine tag
# T3 sequence (P15328 25-233 limits assumed): as the sequence (A0A2K5U044 entry or part of it) above, with T2I, R4W, K37R, P146A, Y171H counted along it
# Method: as §2
# T1 sequence (P15328 25-234): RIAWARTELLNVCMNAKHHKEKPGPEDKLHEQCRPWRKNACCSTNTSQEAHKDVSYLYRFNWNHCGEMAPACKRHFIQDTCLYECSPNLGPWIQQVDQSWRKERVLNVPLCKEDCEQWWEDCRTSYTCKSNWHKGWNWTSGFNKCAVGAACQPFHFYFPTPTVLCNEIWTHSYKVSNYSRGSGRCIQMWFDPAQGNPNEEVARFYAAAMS
EC50 [1] [nM],EC50 [2] [nM],EC50 [3] [nM],EC50 [4] [nM],Binder
~5,~0.06,< 1,~0.05,"lead fully-human anti-FRalpha IgG1 antibody (antibody according to SEQ ID NO: 3-12) (antibody, V domains shown, Fully human IgG1/kappa; also called lead antibody) VH: EVQLLESGGGLVKPGGSLRLSCAASGFTFSSYTMNWVRQAPGKGLEWVSSISSGGGYIYYADSVKDRFTISRDNAKNSLYLQMNSLRAEDTAVYYCAKGDTIMIISAWGQGTTVTVSS VL: DIQLTQSPSTLSASVGDRVTITCRASQSISSWLAWHQQKPGKAPKLLIYAASSLQNGVPSRFSGSGFGTDFTLTISSLQPEDFATYYCQQASSFPLTFGGGTKVEIKR"
~4,~0.16,–,~0.12,"Mirvetuximab (antibody, V domains shown) VH: QVQLVQSGAEVVKPGASVKISCKASGYTFTGYFMNWVKQSPGQSLEWIGRIHPYDGDTFYNQKFQGKATLTVDKSSNTAHMELLSLTSEDFAVYYCTRYDGSRAMDYWGQGTTVTVSS VL: DIVLTQSPLSLAVSLGQPAIISCKASQSVSFAGTSLMHWYHQKPGQQPRLLIYRASNLEAGVPDRFSGSGSKTDFTLTISPVEAEDAATYYCQQSREYPYTFGGGTKLEIK"
